Experimental findings from patent US20220213176A1 (SHANGHAITECH UNIVERSITY, published 2022) are described below.

For assay [1], the target named is SARS-CoV-2 N501Y+D614G mutant pseudovirus spike (spikeΔ19) (SARS-CoV-2, UniProt P0DTC2 14-1254). As to the kind of experiment: cell-based or functional assay.
Assay [2] addresses SARS-CoV-2 K417N+E484K+N501Y+D614G mutant pseudovirus spike (spikeΔ19) (SARS-CoV-2, UniProt P0DTC2 14-1254). As to the kind of experiment: cell-based or functional assay.
In assay [3] the target is SARS-CoV-2 B.1.617.2 pseudovirus spike (SARS-CoV-2). As to the kind of experiment: cell-based or functional assay.
The target in assay [4] is T1, B.1.351 S-RBD (SARS-CoV-2, UniProt P0DTC2 319-541).
T1 construct: also called spike RBD of B.1.351 (Beta Strain)
Kind of assay: BLI (Octet RED96), biotin B.1.351 S-RBD on SA sensor, 1:1 fit. Background: In BLI a coated tip is dipped into the sample, and binding shifts an interference pattern.

Assay [5] concerns the target T1, B.1.351 S-RBD. As to the kind of experiment: BLI (Octet RED96), biotinylated B.1.351 S-RBD on SA biosensor, 1:1 binding model.
Assay [6] concerns the target wild-type SARS-CoV-2 pseudovirus spike (spikeΔ19) (SARS-CoV-2, UniProt P0DTC2 14-1254). As to the kind of experiment: cell-based or functional assay.

B1: S-B8 (antibody, V domains shown)
VH: QVQLVQSGGGLIQPGGSLRLSCAASGFTVSLSHMNWVRQAPGKGLEWVSITYGDGNSDYADSVKGRFTISRDNSKNTLYLQMNSLRAEDTAVYYCAREYYYGMDVWGQGTTVTVSS
VL: not shown
notes: also called S-B8 dimer
As to B1, the “NT50, N501Y+D614G spike pseudovirus neutralization” value in assay [1] was determined as 0.53 nM. Besides, the “NT50 (B.1.351) (nM), pseudovirus neutralization” value (from here on “NT50 (B.1.351) (nM)”) in assay [2] is 1.2 nM. In addition, the “NT50 (B.1.617.2) (nM), pseudovirus neutralization” value (shortened to “NT50 (B.1.617.2) (nM)”) in assay [3] stood at 0.37 nM.

B2: S-B8 trimer (other)
heavy: QVQLVQSGGGLIQPGGSLRLSCAASGFTVSLSHMNWVRQAPGKGLEWVSITYGDGNSDYADSVKGRFTISRDNSKNTLYLQMNSLRAEDTAVYYCAREYYYGMDVWGQGTTVTVSSASTKGPSVFPLAPSSKSTSGGTAALGCLVKDYFPEPVTVSWNSGALTSGVHTFPAVLQSSGLYSLSSVVTVPSSSLGTQTYICNVNHKPSNTKVDKKVEPPKSGGGGSGGGGSGGGGSPGSGYIPEAPRDGQAYVRKDGEWVLLSTFLGHHHHHH
light: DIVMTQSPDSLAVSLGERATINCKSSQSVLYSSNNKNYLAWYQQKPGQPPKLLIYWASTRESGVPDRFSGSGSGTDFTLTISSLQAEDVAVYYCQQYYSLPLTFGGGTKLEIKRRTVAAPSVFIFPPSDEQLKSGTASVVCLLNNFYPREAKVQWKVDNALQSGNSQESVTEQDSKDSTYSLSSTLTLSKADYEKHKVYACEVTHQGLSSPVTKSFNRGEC
For the molecule B2, the “NT50 (B.1.351) (nM)” value in assay [2] came out at 0.35 nM. The “NT50 (B.1.617.2) (nM)” value in assay [3] amounted to 0.15 nM.

B3: S-E6 trimer (T4F) (other)
heavy: QVTLRESGPGLVKPSETLSLTCAVSGGSLSSVNYYWSWIRQHPGKGLEWIGYIYYSGSTNYNPSLKSRVTMSLDTSKNQFSLKLSSVTAADTAVYYCATPGAIMGALHIWGQGTLVTVSSASTKGPSVFPLAPSSKSTSGGTAALGCLVKDYFPEPVTVSWNSGALTSGVHTFPAVLQSSGLYSLSSVVTVPSSSLGTQTYICNVNHKPSNTKVDKKVEPPKSGGGGSGGGGSGGGGSPGSGYIPEAPRDGQAYVRKDGEWVLLSTFLGHHHHHH
light: QAVLTQPSSASSTPGQRVIISCSGSSSNIGSNTVSWYQQVPGAAPKLLIYFDYRRPSGVPDRFSGTRSGTSASLGISGLQSEDEADYYCAAWDDSLSAWVFGRGTKLTVLGGLGGLVDYKGQPKAAPSVTLFPPSSEELQANKATLVCLISDFYPGAVTVAWKADSSPVKAGVETTTPSKQSNNKYAASSYLSLTPEQWKSHRSYSCQVTHEGSTVEKTVAPTECS
notes: also called trimer S-E6; trimeric S-E6
By Kd is commonly meant the free concentration of one partner at which half of the binding sites on the other are occupied at equilibrium, for simple one-to-one binding. Low values mean a tighter complex, high ones a looser complex. In the case of B3, the “NT50 (B.1.617.2) (nM)” value in assay [3] is 0.007 nM. Besides, the dissociation constant Kd in assay [4] was 580 pM; in assay [5], 576 pM.

B4: S-E6 (antibody, V domains shown)
VH: QVTLRESGPGLVKPSETLSLTCAVSGGSLSSVNYYWSWIRQHPGKGLEWIGYIYYSGSTNYNPSLKSRVTMSLDTSKNQFSLKLSSVTAADTAVYYCATPGAIMGALHIWGQGTLVTVSS
VL: QAVLTQPSSASSTPGQRVIISCSGSSSNIGSNTVSWYQQVPGAAPKLLIYFDYRRPSGVPDRFSGTRSGTSASLGISGLQSEDEADYYCAAWDDSLSAWVFGRGTKLTVLG
notes: also called S-E6 dimer; dimer S-E6
Take B4: the “NT50, wild-type SARS-CoV-2 pseudovirus neutralization” value in assay [6] was 0.025 nM. Besides, the “NT50, N501Y+D614G spike pseudovirus neutralization” value in assay [1] is 0.021 nM. Further, the “NT50 (B.1.351) (nM)” value in assay [2] stood at 0.32 nM. For the same molecule, the “NT50 (B.1.617.2) (nM)” value in assay [3] came out at 0.065 nM.

B5: S-D4 (antibody, V domains shown)
VH: QVQLQESGGGVVQPGRSLRLSCEVSGFTFSDYGMHWVRQAPGKGLEWVAVIWSEGSTEYYADSVKGRFTISRDNSKDTLYLQMNSLRAEDTAVYYCARPGYPTSTDRSPAAAGARQYYYYGMDVWGQGTTVTVSS
VL: NFMLTQPHSVSESPGKTVTISCTRSGGSGAANYVQWYQQRPGSSPTTLIYEDSRRPPGVPDRFSGSVDTSSNSASLTISGLQTEDEADYYCQSYDSSNHVVFGGGTKLTVLG
notes: also called S-D4 dimer; S-D4 IgG4
B5: the “NT50, wild-type SARS-CoV-2 pseudovirus neutralization” value in assay [6] amounted to 0.48 nM. In addition, the “NT50, N501Y+D614G spike pseudovirus neutralization” value in assay [1] was 0.042 nM. Further, the “NT50 (B.1.351) (nM)” value in assay [2] came to 0.66 nM. The “NT50 (B.1.617.2) (nM)” value in assay [3] is 0.24 nM.
